Key:
MERTK = MERTK (UniProt Q12866); assay: phosphorylation enrichment, bacterial display (enrichment ratio); higher = better substrate or ligand; peptides without Tyr show the background
Fer (mouse) = assay: as above
Jak2 = Jak2 (UniProt O60674); assay: as above
Fyn = Fyn (UniProt P06241); assay: as above
FGFR3 = FGFR3 (UniProt P22607); assay: as above
EPHB2 = EPHB2 (UniProt P29323); assay: as above
EPHB1 = EPHB1 (UniProt P54762); assay: as above
Hck = Hck (UniProt P08631); assay: as above
AncSZ = assay: as above
Fes = Fes (UniProt P07332); assay: as above
FGFR1 = FGFR1 (UniProt P11362); assay: as above
c-Src = assay: as above
c-Abl (mouse) = assay: as above
SHP2-C SH2 = assay: SH2 binding enrichment of the phosphorylated peptide, bacterial display (enrichment ratio); higher = better substrate or ligand; peptides without Tyr show the background
c-Src SH2 = assay: as above
Grb2 SH2 = Grb2 SH2 (UniProt P62993); assay: as above
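Wherever SH2 binding enrichment of the phosphorylated peptide, bacterial display is given: peptide library displayed on the E. coli surface as eCPX fusions, selected cells deep-sequenced, score is each peptide's frequency after selection divided by its frequency in the input.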
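Wherever phosphorylation enrichment, bacterial display is given: 11-residue human phosphosite peptides and single-mutation variants displayed on the E. coli surface, counted by deep sequencing, each peptide's frequency after selection divided by its frequency in the unselected input library; frequency after pTyr selection over input frequency; kinase dosed for 20-30% of maximal phosphorylation in three min.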

Sequence of Hck (P08631 whole entry, looked up): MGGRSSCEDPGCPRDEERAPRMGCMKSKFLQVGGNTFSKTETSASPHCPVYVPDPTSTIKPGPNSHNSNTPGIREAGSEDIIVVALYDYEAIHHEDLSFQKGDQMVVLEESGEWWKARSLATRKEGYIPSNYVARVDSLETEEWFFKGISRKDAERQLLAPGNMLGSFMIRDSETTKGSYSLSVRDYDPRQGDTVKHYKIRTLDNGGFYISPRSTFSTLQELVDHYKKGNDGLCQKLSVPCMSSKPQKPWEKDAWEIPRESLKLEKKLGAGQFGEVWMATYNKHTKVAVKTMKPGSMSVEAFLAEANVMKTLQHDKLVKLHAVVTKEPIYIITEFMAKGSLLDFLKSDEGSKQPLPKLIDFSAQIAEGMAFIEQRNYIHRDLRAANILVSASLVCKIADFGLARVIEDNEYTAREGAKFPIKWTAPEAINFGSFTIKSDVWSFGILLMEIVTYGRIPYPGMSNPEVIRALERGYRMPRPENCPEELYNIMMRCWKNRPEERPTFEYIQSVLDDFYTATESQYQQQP
Sequence of Fyn (P06241 whole entry, looked up): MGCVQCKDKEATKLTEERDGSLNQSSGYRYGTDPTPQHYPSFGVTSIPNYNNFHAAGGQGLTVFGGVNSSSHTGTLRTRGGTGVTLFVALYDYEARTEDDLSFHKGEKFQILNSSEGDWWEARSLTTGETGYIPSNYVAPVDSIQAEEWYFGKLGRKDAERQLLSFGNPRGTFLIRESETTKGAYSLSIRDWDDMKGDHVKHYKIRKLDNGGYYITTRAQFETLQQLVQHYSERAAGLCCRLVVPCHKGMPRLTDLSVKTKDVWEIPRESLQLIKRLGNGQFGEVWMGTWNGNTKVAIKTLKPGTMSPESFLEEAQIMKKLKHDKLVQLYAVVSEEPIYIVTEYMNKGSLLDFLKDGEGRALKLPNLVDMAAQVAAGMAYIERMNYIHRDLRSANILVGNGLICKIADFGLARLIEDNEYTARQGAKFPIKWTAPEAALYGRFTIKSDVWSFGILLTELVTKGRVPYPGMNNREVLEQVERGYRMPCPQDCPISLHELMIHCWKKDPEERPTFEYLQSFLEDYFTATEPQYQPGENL
Sequence of EPHB2 (P29323 whole entry, looked up): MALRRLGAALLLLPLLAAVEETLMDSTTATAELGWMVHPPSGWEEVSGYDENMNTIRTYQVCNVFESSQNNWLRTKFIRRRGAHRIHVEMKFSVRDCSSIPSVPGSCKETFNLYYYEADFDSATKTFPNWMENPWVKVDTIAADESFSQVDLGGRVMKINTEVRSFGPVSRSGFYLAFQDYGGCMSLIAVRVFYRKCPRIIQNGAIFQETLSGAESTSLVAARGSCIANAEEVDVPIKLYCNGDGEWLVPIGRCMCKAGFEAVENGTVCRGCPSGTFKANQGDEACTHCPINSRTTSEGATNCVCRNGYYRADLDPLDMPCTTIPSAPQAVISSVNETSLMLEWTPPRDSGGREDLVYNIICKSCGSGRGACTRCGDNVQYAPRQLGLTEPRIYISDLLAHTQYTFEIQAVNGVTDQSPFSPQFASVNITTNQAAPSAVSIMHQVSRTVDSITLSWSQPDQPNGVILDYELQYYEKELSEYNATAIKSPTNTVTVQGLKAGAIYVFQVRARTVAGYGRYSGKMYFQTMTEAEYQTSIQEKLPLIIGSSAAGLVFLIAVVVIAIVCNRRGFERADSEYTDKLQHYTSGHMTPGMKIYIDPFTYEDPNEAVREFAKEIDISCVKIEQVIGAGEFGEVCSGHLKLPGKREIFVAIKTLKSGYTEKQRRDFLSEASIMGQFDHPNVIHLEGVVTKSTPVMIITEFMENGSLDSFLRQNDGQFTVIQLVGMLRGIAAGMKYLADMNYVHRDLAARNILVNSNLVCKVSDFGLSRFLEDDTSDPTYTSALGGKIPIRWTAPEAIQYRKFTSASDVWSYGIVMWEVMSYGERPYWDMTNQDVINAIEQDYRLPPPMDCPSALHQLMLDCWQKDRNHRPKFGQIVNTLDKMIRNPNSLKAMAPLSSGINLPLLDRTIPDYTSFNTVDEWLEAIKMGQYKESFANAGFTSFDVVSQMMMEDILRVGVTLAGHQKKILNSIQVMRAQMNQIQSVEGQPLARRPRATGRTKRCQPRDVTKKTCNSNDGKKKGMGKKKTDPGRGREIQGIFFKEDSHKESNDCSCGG
Sequence of FGFR1 (P11362 whole entry, looked up): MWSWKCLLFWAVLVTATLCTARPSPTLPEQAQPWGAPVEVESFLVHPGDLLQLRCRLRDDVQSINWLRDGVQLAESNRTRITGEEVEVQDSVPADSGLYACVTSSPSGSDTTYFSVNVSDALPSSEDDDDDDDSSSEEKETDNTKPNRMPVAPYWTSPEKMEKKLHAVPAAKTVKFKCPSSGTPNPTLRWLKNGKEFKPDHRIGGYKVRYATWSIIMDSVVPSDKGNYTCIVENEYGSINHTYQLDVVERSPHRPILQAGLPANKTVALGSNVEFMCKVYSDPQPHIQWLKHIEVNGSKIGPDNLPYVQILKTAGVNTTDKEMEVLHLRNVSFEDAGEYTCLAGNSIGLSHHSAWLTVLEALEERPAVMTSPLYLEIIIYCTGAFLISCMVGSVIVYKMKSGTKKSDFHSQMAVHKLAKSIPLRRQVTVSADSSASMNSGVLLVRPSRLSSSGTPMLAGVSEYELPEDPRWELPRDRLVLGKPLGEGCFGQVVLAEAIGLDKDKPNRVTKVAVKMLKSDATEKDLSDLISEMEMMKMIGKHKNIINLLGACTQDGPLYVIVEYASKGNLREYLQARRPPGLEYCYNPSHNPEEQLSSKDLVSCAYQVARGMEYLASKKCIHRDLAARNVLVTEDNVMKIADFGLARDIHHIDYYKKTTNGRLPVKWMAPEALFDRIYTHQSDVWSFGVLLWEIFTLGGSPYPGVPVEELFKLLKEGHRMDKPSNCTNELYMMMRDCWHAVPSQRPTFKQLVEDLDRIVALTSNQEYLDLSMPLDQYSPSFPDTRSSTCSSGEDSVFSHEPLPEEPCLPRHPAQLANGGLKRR
Sequence of EPHB1 (P54762 whole entry, looked up): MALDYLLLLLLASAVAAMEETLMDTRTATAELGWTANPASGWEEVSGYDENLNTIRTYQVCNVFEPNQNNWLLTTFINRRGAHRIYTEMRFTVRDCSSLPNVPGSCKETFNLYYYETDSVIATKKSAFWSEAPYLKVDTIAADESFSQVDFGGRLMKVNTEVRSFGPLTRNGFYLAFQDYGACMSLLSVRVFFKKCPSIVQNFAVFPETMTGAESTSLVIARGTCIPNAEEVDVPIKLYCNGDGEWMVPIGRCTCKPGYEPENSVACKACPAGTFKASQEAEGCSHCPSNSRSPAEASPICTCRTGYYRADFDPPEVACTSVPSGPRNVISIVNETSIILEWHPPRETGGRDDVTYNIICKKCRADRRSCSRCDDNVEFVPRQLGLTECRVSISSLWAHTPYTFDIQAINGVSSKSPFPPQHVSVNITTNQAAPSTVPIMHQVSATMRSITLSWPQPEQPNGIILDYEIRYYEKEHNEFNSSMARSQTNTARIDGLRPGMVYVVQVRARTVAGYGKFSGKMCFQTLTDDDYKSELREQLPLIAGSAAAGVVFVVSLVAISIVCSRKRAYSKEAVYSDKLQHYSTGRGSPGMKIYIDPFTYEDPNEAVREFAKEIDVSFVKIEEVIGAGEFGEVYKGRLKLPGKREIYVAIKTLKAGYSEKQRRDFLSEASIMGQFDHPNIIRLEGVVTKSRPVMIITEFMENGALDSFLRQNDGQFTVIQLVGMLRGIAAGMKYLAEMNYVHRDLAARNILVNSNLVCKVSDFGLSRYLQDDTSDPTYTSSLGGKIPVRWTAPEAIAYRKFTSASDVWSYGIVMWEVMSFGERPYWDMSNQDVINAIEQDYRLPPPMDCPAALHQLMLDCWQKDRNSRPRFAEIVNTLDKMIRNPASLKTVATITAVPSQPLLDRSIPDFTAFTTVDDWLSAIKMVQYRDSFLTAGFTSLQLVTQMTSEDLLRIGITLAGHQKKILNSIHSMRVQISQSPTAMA
Sequence of Fes (P07332 whole entry, looked up): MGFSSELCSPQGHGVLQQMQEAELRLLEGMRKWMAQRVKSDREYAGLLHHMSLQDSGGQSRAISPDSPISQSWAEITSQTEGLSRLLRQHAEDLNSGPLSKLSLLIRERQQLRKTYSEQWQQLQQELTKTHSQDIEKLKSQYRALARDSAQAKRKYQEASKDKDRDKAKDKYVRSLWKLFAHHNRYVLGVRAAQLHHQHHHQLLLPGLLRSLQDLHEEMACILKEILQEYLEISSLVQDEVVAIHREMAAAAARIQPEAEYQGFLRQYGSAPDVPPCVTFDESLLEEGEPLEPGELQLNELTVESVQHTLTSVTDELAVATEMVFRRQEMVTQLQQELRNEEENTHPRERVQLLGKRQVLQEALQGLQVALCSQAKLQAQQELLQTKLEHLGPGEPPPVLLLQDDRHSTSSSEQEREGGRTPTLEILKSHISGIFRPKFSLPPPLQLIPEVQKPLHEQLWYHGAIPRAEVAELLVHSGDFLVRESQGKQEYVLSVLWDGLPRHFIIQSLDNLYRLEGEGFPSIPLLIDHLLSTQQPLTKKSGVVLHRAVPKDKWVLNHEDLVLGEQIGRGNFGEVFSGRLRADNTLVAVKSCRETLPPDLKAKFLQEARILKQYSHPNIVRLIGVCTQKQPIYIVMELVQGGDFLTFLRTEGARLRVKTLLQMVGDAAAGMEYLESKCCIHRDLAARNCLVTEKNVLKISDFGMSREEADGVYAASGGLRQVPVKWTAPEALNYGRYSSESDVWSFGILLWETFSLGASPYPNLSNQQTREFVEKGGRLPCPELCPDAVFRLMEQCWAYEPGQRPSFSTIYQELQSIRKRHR

| Sequence | SH2 binding enrichment (SHP2-C SH2) | SH2 binding enrichment (c-Src SH2) | SH2 binding enrichment (Grb2 SH2) | phosphorylation enrichment (MERTK) | phosphorylation enrichment (Fer (mouse)) | phosphorylation enrichment (Jak2) | phosphorylation enrichment (Fyn) | phosphorylation enrichment (FGFR3) | phosphorylation enrichment (EPHB2) | phosphorylation enrichment (EPHB1) | phosphorylation enrichment (Hck) | phosphorylation enrichment (AncSZ) | phosphorylation enrichment (Fes) | phosphorylation enrichment (FGFR1) | phosphorylation enrichment (c-Src) | phosphorylation enrichment (c-Abl (mouse)) |
| --- | --- | --- | --- | --- | --- | --- | --- | --- | --- | --- | --- | --- | --- | --- | --- | --- |
| VIESSYQVAKA [CPT1B_Y534] | 0.782 | 0.537 | 0.906 | 0.44 | 0.448 | 0.535 | 0.457 | 0.404 | 0.483 | 0.454 | 0.577 | 0.7 | 0.815 | 0.489 | 0.483 | 0.558 |
| LKVQVYILGRE [ASS1_Y359_G356V] | 0.968 | 0.804 | 1.46 | 1.36 | 1.59 | 3.33 | 1.13 | 1.95 | 1.88 | 1.58 | 1.49 | 3.58 | 5.15 | 1.34 | 1.39 | 2.44 |
| NNIDFYKKTTN [FGFR2_Y657_YF] | 0.45 | 0.515 | 0.729 | 0.364 | 0.388 | 0.722 | 0.393 | 0.467 | 0.397 | 0.639 | 0.435 | 0.637 | 0.695 | 0.338 | 0.422 | 0.498 |
| MIHSAYALGGL [CPS1_Y590_R587H] | 0.64 | 0.716 | 0.883 | 0.409 | 0.626 | 0.502 | 0.566 | 0.471 | 0.428 | 0.36 | 0.464 | 0.53 | 0.592 | 0.388 | 0.489 | 0.373 |
| FGMQLYQNFMH [GRB14_Y347_YF] | 1.34 | 1.22 | 2.83 | 2.89 | 5.17 | 0.971 | 2.84 | 0.772 | 2.41 | 3.53 | 3.03 | 1.06 | 1.04 | 0.544 | 3.67 | 0.777 |
| SEKIVYGHLDD [ACO2_Y71] | 0.926 | 0.56 | 0.865 | 0.359 | 0.505 | 0.815 | 0.817 | 0.573 | 0.556 | 0.499 | 0.639 | 0.829 | 1 | 0.432 | 0.847 | 0.793 |
| GIVEDYRPTFY [ACVRL1_Y421_P424T] | 0.657 | 0.763 | 0.875 | 0.404 | 0.373 | 0.661 | 0.513 | 0.648 | 0.484 | 0.561 | 0.475 | 0.83 | 0.866 | 0.441 | 0.347 | 0.899 |
| NVADHYRVYKP [ATP6V0D2_Y271_G272R] | 0.517 | 0.469 | 0.619 | 0.426 | 0.433 | 0.561 | 0.501 | 0.479 | 0.574 | 0.54 | 0.384 | 0.721 | 0.767 | 0.489 | 0.412 | 0.703 |

Continued, in another order:

| SH2 binding enrichment (SHP2-C SH2) | SH2 binding enrichment (c-Src SH2) | SH2 binding enrichment (Grb2 SH2) | Sequence | phosphorylation enrichment (MERTK) | phosphorylation enrichment (Fer (mouse)) | phosphorylation enrichment (Jak2) | phosphorylation enrichment (Fyn) | phosphorylation enrichment (FGFR3) | phosphorylation enrichment (EPHB2) | phosphorylation enrichment (EPHB1) | phosphorylation enrichment (Hck) | phosphorylation enrichment (AncSZ) | phosphorylation enrichment (Fes) | phosphorylation enrichment (FGFR1) | phosphorylation enrichment (c-Src) | phosphorylation enrichment (c-Abl (mouse)) |
| --- | --- | --- | --- | --- | --- | --- | --- | --- | --- | --- | --- | --- | --- | --- | --- | --- |
| 1.13 | 0.683 | 0.688 | AELVQYYMEHH [PTPN11_Y80] | 0.68 | 0.494 | 1.19 | 0.654 | 0.954 | 1.01 | 1.06 | 0.974 | 1.2 | 1.26 | 0.827 | 0.845 | 0.826 |
| 0.412 | 0.404 | 0.938 | AGQERYRAITS [RAB11B_Y73] | 0.487 | 0.469 | 0.704 | 0.554 | 0.466 | 0.53 | 0.413 | 0.527 | 0.641 | 0.627 | 0.613 | 0.512 | 0.605 |
| 0.708 | 0.541 | 0.672 | SGFESYGSSSY [RPA2_Y9] | 0.382 | 0.403 | 0.821 | 0.44 | 0.462 | 0.478 | 0.341 | 0.474 | 0.582 | 0.765 | 0.368 | 0.481 | 0.718 |
| 0.496 | 0.457 | 0.824 | DDSNLYINVKL [MTHFD1_Y52] | 0.424 | 0.751 | 1.56 | 0.443 | 0.994 | 0.804 | 0.777 | 0.607 | 1.45 | 1.63 | 0.702 | 0.442 | 1.08 |
| 0.84 | 1.42 | 0.821 | ANNQRYAFMPL [TMEM87B_Y460] | 5.61 | 0.394 | 0.621 | 0.436 | 0.566 | 0.591 | 0.655 | 0.393 | 0.588 | 0.696 | 0.535 | 0.485 | 0.528 |
| 1.05 | 0.626 | 1 | FTHSDYQFGQR [PKP2_Y166_S169G_YF] | 0.469 | 0.453 | 0.583 | 0.443 | 0.474 | 0.471 | 0.389 | 0.518 | 0.697 | 0.687 | 0.465 | 0.457 | 0.553 |
| 0.681 | 0.372 | 0.646 | TLARLYHPDST [LRIG1_Y1029] | 0.355 | 0.364 | 0.609 | 0.575 | 0.429 | 0.549 | 0.422 | 0.416 | 0.508 | 0.743 | 0.344 | 0.302 | 0.672 |
| 1.43 | 1.03 | 2.08 | IGMIIYFARKA [VCAM1_Y718] | 0.374 | 0.417 | 0.88 | 0.481 | 0.72 | 2.23 | 0.487 | 1.09 | 0.9 | 0.957 | 0.515 | 0.449 | 0.734 |
| 1.09 | 0.594 | 1.06 | QCTSAYPLQPE [NANS_Y188] | 0.682 | 0.675 | 1.65 | 0.832 | 0.942 | 0.813 | 0.719 | 0.623 | 1.51 | 1.46 | 0.616 | 0.728 | 2.7 |
